Results published in patent US20250223358A1.
“And” between values parts separate entries of the source, which are not always exact repeats. Identical values can stand only once.

Biological target: human CD3 (human) (UniProt P07766)
Test: cell-based or functional assay

Chain of human CD3 (human) (P07766 23-207, chain 1 of 3): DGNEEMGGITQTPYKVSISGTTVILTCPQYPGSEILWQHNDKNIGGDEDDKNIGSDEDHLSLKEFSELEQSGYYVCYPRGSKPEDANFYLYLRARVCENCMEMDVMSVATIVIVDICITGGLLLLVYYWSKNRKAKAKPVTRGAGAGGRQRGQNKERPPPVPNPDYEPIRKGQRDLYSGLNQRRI
Chain of human CD3 (human) (P04234 22-171, chain 2 of 3, further chain): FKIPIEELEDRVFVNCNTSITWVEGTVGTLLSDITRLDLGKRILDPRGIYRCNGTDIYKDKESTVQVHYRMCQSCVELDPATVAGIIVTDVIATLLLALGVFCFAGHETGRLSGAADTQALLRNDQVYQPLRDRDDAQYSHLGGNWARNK
Chain of human CD3 (human) (P09693 23-182, chain 3 of 3, further chain): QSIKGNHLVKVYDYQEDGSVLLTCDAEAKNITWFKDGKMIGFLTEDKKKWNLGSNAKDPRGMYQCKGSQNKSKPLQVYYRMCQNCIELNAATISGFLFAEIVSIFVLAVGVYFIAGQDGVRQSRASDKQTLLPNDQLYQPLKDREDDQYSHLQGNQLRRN

RLU (Jurkat-NFAT-luciferase activation, antibody coated at 50 ug/mL), Plate 1: 564 RLU and 582 RLU
RLU (Jurkat-NFAT-luciferase activation, antibody coated at 50 ug/mL), Plate 2: 386 RLU and 380 RLU
RLU (Jurkat-NFAT-luciferase activation, antibody coated at 50 ug/mL), Plate 3: 237 RLU and 231 RLU
Substance: Isotype control (antibody)
